Measurements: patent US10941182 (Amgen, dated 2021)
Non-standard residues stand in square brackets, D forms with d. Primed or numbered codes have the meaning given here. No end group written: not given here. Oic = O=C(O)[C@@H]1C[C@@H]2CCCC[C@@H]2N1; Phe(4-Cl) = N[C@@H](Cc1ccc(Cl)cc1)C(=O)O; d1Nal = N[C@H](Cc1cccc2ccccc12)C(=O)O; d2Nal = N[C@H](Cc1ccc2ccccc2c1)C(=O)O; NMeR = CN[C@@H](CCCNC(=N)N)C(=O)O; hArg = N=C(N)NCCCC[C@H](N)C(=O)O; Cha = N[C@@H](CC1CCCCC1)C(=O)O; Gly(N-CH2CH2OH) = O=C(O)CNCCO; αMeP = C[C@@]1(C(=O)O)CCCN1; β3hK = NCCCC[C@H](N)CC(=O)O; β3hP = O=C(O)C[C@@H]1CCCN1; Nle = CCCC[C@H](N)C(=O)O; Orn = NCCC[C@H](N)C(=O)O; Pip′ = not defined here; Nlys = NCCCCNCC(=O)O; BLeu = β-leucine; βAla = NCCC(=O)O; BLys = β-lysine

T1: rat APJ receptor (rat, UniProt Q9JHG3 1-377)
T1 sequence (looked up): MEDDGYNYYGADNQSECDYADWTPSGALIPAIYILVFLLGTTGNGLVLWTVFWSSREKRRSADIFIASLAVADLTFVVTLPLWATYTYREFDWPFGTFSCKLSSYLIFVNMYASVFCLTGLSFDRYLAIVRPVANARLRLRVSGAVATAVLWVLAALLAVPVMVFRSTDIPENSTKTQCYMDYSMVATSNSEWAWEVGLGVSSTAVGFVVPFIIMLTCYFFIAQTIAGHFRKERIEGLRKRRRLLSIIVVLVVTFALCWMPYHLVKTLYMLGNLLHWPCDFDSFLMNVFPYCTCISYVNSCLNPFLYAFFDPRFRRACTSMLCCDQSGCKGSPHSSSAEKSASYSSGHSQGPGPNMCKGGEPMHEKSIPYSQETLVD

T2: human APJ receptor (human, UniProt P35414 1-380)
T2 sequence (looked up): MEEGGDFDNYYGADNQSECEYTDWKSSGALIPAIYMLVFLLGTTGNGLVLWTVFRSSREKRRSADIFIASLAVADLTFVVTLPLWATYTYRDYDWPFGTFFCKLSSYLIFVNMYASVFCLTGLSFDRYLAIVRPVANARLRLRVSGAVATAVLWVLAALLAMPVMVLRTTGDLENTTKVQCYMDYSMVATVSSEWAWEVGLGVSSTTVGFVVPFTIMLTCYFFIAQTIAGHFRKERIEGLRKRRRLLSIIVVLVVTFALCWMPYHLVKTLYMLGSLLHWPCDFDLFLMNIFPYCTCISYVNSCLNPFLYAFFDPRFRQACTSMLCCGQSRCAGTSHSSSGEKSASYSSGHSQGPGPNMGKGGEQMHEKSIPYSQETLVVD

B1: apelin polypeptide SEQ ID NO: 31 (peptide)
peptide: Ac-[Orn]F[hArg][hArg]Q[hArg]P[hArg][Cha][Gly(N-CH2CH2OH)]HKG[Oic][Nle]P[Phe(4-Cl)]-OH
SMILES: CCCC[C@H](NC(=O)[C@@H]1C[C@@H]2CCCC[C@@H]2N1C(=O)CNC(=O)[C@H](CCCCN)NC(=O)[C@H](Cc1c[nH]cn1)NC(=O)CN(CCO)C(=O)[C@H](CC1CCCCC1)NC(=O)[C@H](CCCCNC(=N)N)NC(=O)[C@@H]1CCCN1C(=O)[C@H](CCCCNC(=N)N)NC(=O)[C@H](CCC(N)=O)NC(=O)[C@H](CCCCNC(=N)N)NC(=O)[C@H](CCCCNC(=N)N)NC(=O)[C@H](Cc1ccccc1)NC(=O)[C@H](CCCN)NC(C)=O)C(=O)N1CCC[C@H]1C(=O)N[C@@H](Cc1ccc(Cl)cc1)C(=O)O
B2: apelin polypeptide SEQ ID NO: 25 (peptide)
peptide: Ac-[hArg]Q[dR]P[NMeR][Cha]SHKG[Oic][Nle][d1Nal]-OH
SMILES: CCCC[C@H](NC(=O)[C@@H]1C[C@@H]2CCCC[C@@H]2N1C(=O)CNC(=O)[C@H](CCCCN)NC(=O)[C@H](Cc1c[nH]cn1)NC(=O)[C@H](CO)NC(=O)[C@H](CC1CCCCC1)NC(=O)[C@H](CCCNC(=N)N)N(C)C(=O)[C@@H]1CCCN1C(=O)[C@@H](CCCNC(=N)N)NC(=O)[C@H](CCC(N)=O)NC(=O)[C@H](CCCCNC(=N)N)NC(C)=O)C(=O)N[C@H](Cc1cccc2ccccc12)C(=O)O

Molecular target: T1, rat APJ receptor
Assay: cell-based or functional assay

Binder | EC50 Rat APJ Receptor
Ac-[Orn]F[hArg][hArg][BLeu][hArg]P[hArg][Cha]SHKG[Oic][Nle]P[Phe(4-Cl)]-OH [apelin polypeptide SEQ ID NO: 29] | 301 pM
[Orn]F[hArg][hArg]Q[hArg]P[hArg][Cha]SHKG[Oic][Nle]P[Phe(4-Cl)] [apelin polypeptide SEQ ID NO: 714] | 271 pM
[Orn]F[hArg][hArg]Q[hArg]P[hArg][Cha]SHKG[Oic][Nle][βAla][Phe(4-Cl)] [apelin polypeptide SEQ ID NO: 710] | 1790 pM
B1 | 703 pM
Ac-[Orn]F[hArg][hArg]Q[hArg]P[hArg][BLeu]SHKG[Oic][Nle]P[Phe(4-Cl)]-OH [apelin polypeptide SEQ ID NO: 30] | 456 pM
[Orn]F[hArg][hArg]Q[hArg]P[hArg][Cha]SHKG[Oic][Nle][β3hP][Phe(4-Cl)] [apelin polypeptide SEQ ID NO: 709] | 862 pM
[Orn]F[hArg][hArg]Q[hArg]P[hArg][Cha]SH[βAla]G[Oic][Nle]P[Phe(4-Cl)] [apelin polypeptide SEQ ID NO: 703] | 2670 pM
[Orn]F[hArg][hArg]Q[hArg]P[hArg][Cha]SHKG[Oic][Nle][d2Nal] [apelin polypeptide SEQ ID NO: 713] | 1140 pM
[Orn]F[hArg][hArg]Q[hArg]P[hArg][Cha]SHKG[Oic][Nle][Pip′][Phe(4-Cl)] [apelin polypeptide SEQ ID NO: 711] | 351 pM
[Orn]F[hArg][hArg]Q[hArg]P[hArg][Cha]SH[β3hK]G[Oic][Nle]P[Phe(4-Cl)] [apelin polypeptide SEQ ID NO: 701] | 879 pM
[Orn]F[hArg][hArg]Q[hArg]P[hArg][Cha]SHK[βAla][Oic][Nle]P[Phe(4-Cl)] [apelin polypeptide SEQ ID NO: 704] | 2860 pM
B2 | 53700 pM
Ac-[Orn]F[hArg][hArg]Q[hArg]P[hArg][Cha]SH[Nlys]G[Oic][Nle]P[Phe(4-Cl)]-OH [apelin polypeptide SEQ ID NO: 32] | 1510 pM
[Orn]F[hArg][hArg]Q[hArg]P[hArg][Cha]S[βAla]KG[Oic][Nle]P[Phe(4-Cl)] [apelin polypeptide SEQ ID NO: 700] | 3110 pM
[Orn]F[hArg][hArg]Q[hArg]P[hArg][Cha][βAla]HKG[Oic][Nle]P[Phe(4-Cl)] [apelin polypeptide SEQ ID NO: 699] | 603 pM
Ac-[Orn]F[hArg][hArg]Q[hArg][αMeP][hArg][Cha]SHKG[Oic][Nle]P[Phe(4-Cl)]-OH [apelin polypeptide SEQ ID NO: 33] | 318 pM
[Orn]F[hArg][hArg]Q[hArg]P[hArg][Cha]SHKG[Oic][Nle][d1Nal] [apelin polypeptide SEQ ID NO: 712] | 821 pM
[Orn]F[hArg][hArg]Q[hArg]P[hArg][Cha]SHKG[β3hP][Nle]P[Phe(4-Cl)] [apelin polypeptide SEQ ID NO: 706] | 4390 pM
[Orn]F[hArg][hArg]Q[hArg]P[hArg][Cha]SHKG[Pip′][Nle]P[Phe(4-Cl)] [apelin polypeptide SEQ ID NO: 707] | 471 pM
[Orn]F[hArg][hArg]Q[hArg]P[hArg][Cha]SHKG[βAla][Nle]P[Phe(4-Cl)] [apelin polypeptide SEQ ID NO: 705] | 11100 pM
[Orn]F[hArg][hArg]Q[hArg]P[hArg][Cha]SH[BLys]G[Oic][Nle]P[Phe(4-Cl)] [apelin polypeptide SEQ ID NO: 702] | 1490 pM

Molecular target: T2, human APJ receptor
Assay: cell-based or functional assay

Binder | EC50 Human APJ Receptor
Ac-[Orn]F[hArg][hArg][BLeu][hArg]P[hArg][Cha]SHKG[Oic][Nle]P[Phe(4-Cl)]-OH [apelin polypeptide SEQ ID NO: 29] | 116 pM
[Orn]F[hArg][hArg]Q[hArg]P[hArg][Cha]SHKG[Oic][Nle]P[Phe(4-Cl)] [apelin polypeptide SEQ ID NO: 714] | 168 pM
[Orn]F[hArg][hArg]Q[hArg]P[hArg][Cha]SHKG[Oic][Nle][βAla][Phe(4-Cl)] [apelin polypeptide SEQ ID NO: 710] | 785 pM
B1 | 116 pM
Ac-[Orn]F[hArg][hArg]Q[hArg]P[hArg][BLeu]SHKG[Oic][Nle]P[Phe(4-Cl)]-OH [apelin polypeptide SEQ ID NO: 30] | 166 pM
[Orn]F[hArg][hArg]Q[hArg]P[hArg][Cha]SHKG[Oic][Nle][β3hP][Phe(4-Cl)] [apelin polypeptide SEQ ID NO: 709] | 555 pM
[Orn]F[hArg][hArg]Q[hArg]P[hArg][Cha]SH[βAla]G[Oic][Nle]P[Phe(4-Cl)] [apelin polypeptide SEQ ID NO: 703] | 1260 pM
[Orn]F[hArg][hArg]Q[hArg]P[hArg][Cha]SHKG[Oic][Nle][d2Nal] [apelin polypeptide SEQ ID NO: 713] | 1540 pM
[Orn]F[hArg][hArg]Q[hArg]P[hArg][Cha]SHKG[Oic][Nle][Pip′][Phe(4-Cl)] [apelin polypeptide SEQ ID NO: 711] | 229 pM
[Orn]F[hArg][hArg]Q[hArg]P[hArg][Cha]SH[β3hK]G[Oic][Nle]P[Phe(4-Cl)] [apelin polypeptide SEQ ID NO: 701] | 316 pM
[Orn]F[hArg][hArg]Q[hArg]P[hArg][Cha]SHK[βAla][Oic][Nle]P[Phe(4-Cl)] [apelin polypeptide SEQ ID NO: 704] | 963 pM
B2 | 1740 pM
Ac-[Orn]F[hArg][hArg]Q[hArg]P[hArg][Cha]SH[Nlys]G[Oic][Nle]P[Phe(4-Cl)]-OH [apelin polypeptide SEQ ID NO: 32] | 250 pM
[Orn]F[hArg][hArg]Q[hArg]P[hArg][Cha]S[βAla]KG[Oic][Nle]P[Phe(4-Cl)] [apelin polypeptide SEQ ID NO: 700] | 949 pM
[Orn]F[hArg][hArg]Q[hArg]P[hArg][Cha][βAla]HKG[Oic][Nle]P[Phe(4-Cl)] [apelin polypeptide SEQ ID NO: 699] | 440 pM
Ac-[Orn]F[hArg][hArg]Q[hArg][αMeP][hArg][Cha]SHKG[Oic][Nle]P[Phe(4-Cl)]-OH [apelin polypeptide SEQ ID NO: 33] | 98.5 pM
[Orn]F[hArg][hArg]Q[hArg]P[hArg][Cha]SHKG[Oic][Nle][d1Nal] [apelin polypeptide SEQ ID NO: 712] | 654 pM
[Orn]F[hArg][hArg]Q[hArg]P[hArg][Cha]SHKG[β3hP][Nle]P[Phe(4-Cl)] [apelin polypeptide SEQ ID NO: 706] | 1990 pM
[Orn]F[hArg][hArg]Q[hArg]P[hArg][Cha]SHKG[Pip′][Nle]P[Phe(4-Cl)] [apelin polypeptide SEQ ID NO: 707] | 294 pM
[Orn]F[hArg][hArg]Q[hArg]P[hArg][Cha]SHKG[βAla][Nle]P[Phe(4-Cl)] [apelin polypeptide SEQ ID NO: 705] | 3480 pM
[Orn]F[hArg][hArg]Q[hArg]P[hArg][Cha]SH[BLys]G[Oic][Nle]P[Phe(4-Cl)] [apelin polypeptide SEQ ID NO: 702] | 330 pM
